{"source": "paper PMC8616905", "key": {"[1]": {"target": "Ago2 (guide-loaded) (human) (UniProt Q9UKV8)", "sequence (Q9UKV8 whole entry)": "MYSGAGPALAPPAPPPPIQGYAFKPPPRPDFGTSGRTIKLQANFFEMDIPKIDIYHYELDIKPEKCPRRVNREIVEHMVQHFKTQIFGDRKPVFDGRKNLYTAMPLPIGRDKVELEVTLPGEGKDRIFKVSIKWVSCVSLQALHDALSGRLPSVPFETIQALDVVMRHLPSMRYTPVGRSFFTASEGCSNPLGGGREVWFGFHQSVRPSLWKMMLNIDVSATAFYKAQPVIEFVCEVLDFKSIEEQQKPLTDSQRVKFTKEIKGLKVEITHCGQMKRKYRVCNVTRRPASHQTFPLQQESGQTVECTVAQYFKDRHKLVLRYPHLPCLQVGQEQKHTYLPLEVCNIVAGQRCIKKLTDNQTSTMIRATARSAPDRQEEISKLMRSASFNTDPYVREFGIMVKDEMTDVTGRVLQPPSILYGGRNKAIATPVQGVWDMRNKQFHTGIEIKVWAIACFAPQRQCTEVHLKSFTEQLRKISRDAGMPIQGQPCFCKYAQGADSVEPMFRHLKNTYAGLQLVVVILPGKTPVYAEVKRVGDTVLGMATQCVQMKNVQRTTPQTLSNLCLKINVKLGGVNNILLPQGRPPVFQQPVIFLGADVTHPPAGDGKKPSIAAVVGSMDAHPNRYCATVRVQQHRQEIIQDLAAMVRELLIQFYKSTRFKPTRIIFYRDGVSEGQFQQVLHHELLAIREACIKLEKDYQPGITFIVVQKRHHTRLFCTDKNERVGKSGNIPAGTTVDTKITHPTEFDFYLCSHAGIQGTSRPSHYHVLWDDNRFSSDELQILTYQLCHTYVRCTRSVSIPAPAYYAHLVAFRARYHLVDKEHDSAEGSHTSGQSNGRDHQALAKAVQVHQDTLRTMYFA", "assay": "EMSA"}, "[2]": {"target": "Ago2 (guide-loaded) (human) (UniProt Q9UKV8)", "assay": "koff measurement"}}, "note": "Like-named read-outs stand apart in the source and are kept apart here."}
{"substance": "HCV 5' UTR deltaSL1 + miR-122 guide", "values": [{"measurement": "Kd", "setting": "[1]", "value": 0.058, "unit": "nM"}]}
{"substance": "Site-1 WT + miR-122 guide", "values": [{"measurement": "binding signal (relative koff (reference))", "setting": "[2]", "value": 1}]}
{"substance": "Site-1 deltaSL1 (A4 bridge) + miR-122 guide", "values": [{"measurement": "koff fold change (fold slower koff than Site-1 WT)", "setting": "[2]", "value": 6}]}
{"substance": "Site-1 t9 abasic + miR-122 guide", "values": [{"measurement": "koff fold change (fold slower koff than Site-1 WT)", "setting": "[2]; abasic nucleotide at t9 (G21)", "value": 3}]}
